In US20140287029A1:

Molecular target: HLA-A2 molecules on T2 cells (human)
Assay: T2 cell-binding assay, flow cytometry of HLA-A2 on T2 cells, peptide 25 µg/mL; negative control
Settings: remark: other sources report otherwise

T2 Binding (mean fluorescence intensity): 88 MFI
Binder: HLFGYSWYK [CAP-7 peptide]
